Measurements: the Immune Epitope Database (IEDB)
Blank lines part the entries; values can stand above or below the sequence they belong to.

What was measured:
HLA-A*68:02 = assay: IEDB peptide-MHC binding, purified MHC/competitive/radioactivity; filed as Kd, often an IC50 or EC50 that approximates it; ≥ and ≤ were set here for values at or beyond the usual limits of such assays
HLA-A*02:01 [1] = assay: as above
HLA-A*02:02 = assay: as above
HLA-A*02:03 = assay: as above
HLA-A*02:06 = assay: as above
HLA-A*03:01 = assay: as above; conditions: source organism: Vaccinia virus WR
HLA-A*11:01 = assay: as above; conditions: source organism: Vaccinia virus WR
HLA-A*31:01 = assay: as above; conditions: source organism: Vaccinia virus WR
HLA-A*33:01 = assay: as above; conditions: source organism: Vaccinia virus WR
HLA-A*68:01 = assay: as above; conditions: source organism: Vaccinia virus WR
HLA-B*07:02 = assay: as above; conditions: source organism: Vaccinia virus WR
HLA-B*35:01 = assay: as above; conditions: source organism: Vaccinia virus WR
HLA-B*51:01 [2] = assay: as above; conditions: source organism: Vaccinia virus WR
HLA-B*53:01 = assay: as above; conditions: source organism: Vaccinia virus WR
HLA-B*54:01 = assay: as above; conditions: source organism: Vaccinia virus WR
HLA-A*01:01 = assay: IEDB peptide-MHC binding, purified MHC/direct/fluorescence; filed as Kd, often an IC50 or EC50 that approximates it; ≥ and ≤ were set here for values at or beyond the usual limits of such assays
HLA-A*02:01 [3] = assay: IEDB peptide-MHC binding, purified MHC/competitive/fluorescence; filed as Kd, often an IC50 or EC50 that approximates it; ≥ and ≤ were set here for values at or beyond the usual limits of such assays; conditions: source organism: Homo sapiens
HLA-A*26:01 [4] = assay: as above; conditions: source organism: Homo sapiens
HLA-A*69:01 = assay: as above; conditions: source organism: Homo sapiens
HLA-B*15:01 = assay: as above; conditions: source organism: Homo sapiens
HLA-B*27:03 = assay: as above; conditions: source organism: Homo sapiens
HLA-B*39:01 = assay: as above; conditions: source organism: Homo sapiens
HLA-B*46:01 = assay: as above; conditions: source organism: Homo sapiens
HLA-B*51:01 [5] = assay: as above; conditions: source organism: Homo sapiens
HLA-B*57:01 = assay: as above; conditions: source organism: Homo sapiens
HLA-A*26:01 [6] = assay: IEDB peptide-MHC binding, purified MHC/competitive/radioactivity; filed as Kd, often an IC50 or EC50 that approximates it; ≥ and ≤ were set here for values at or beyond the usual limits of such assays; conditions: source organism: Dengue virus 3 Martinique/1243/1999
HLA-B*15:17 = assay: IEDB peptide-MHC binding, purified MHC/competitive/fluorescence; filed as Kd, often an IC50 or EC50 that approximates it; ≥ and ≤ were set here for values at or beyond the usual limits of such assays; conditions: source organism: Homo sapiens
HLA-B*18:01 [7] = assay: as above; conditions: source organism: Homo sapiens
HLA-B*18:01 [8] = assay: IEDB peptide-MHC binding, purified MHC/competitive/radioactivity; filed as Kd, often an IC50 or EC50 that approximates it; ≥ and ≤ were set here for values at or beyond the usual limits of such assays
HLA-B*40:01 = assay: as above
HLA-B*40:02 = assay: as above
HLA-B*44:02 = assay: as above
HLA-B*44:03 = assay: as above
HLA-B*45:01 = assay: as above
[9] = source organism: Vaccinia virus WR
[10] = source organism: Lassa virus Josiah
[11] = source organism: Trypanosoma cruzi
[12] = source organism: Dengue virus 3 Martinique/1243/1999
[13] = source organism: Dengue virus 1 Brazil/97-11/1997
[14] = source organism: SARS coronavirus Tor2
[15] = source organism: Mammarenavirus tacaribeense
[16] = source organism: Mammarenavirus brazilense

Sequence: WVSGVSGNI
- Kd (HLA-A*68:02; source organism: Dengue virus 4 Philippines/H241/1956): 0.0101 µM

Sequence: CTFMIITSTK
- Kd (HLA-A*02:01 [1]; [9]): 1.86 µM
- Kd (HLA-A*02:02; [9]): 8.14 µM
- Kd (HLA-A*02:03; [9]): 6.79 µM
- Kd (HLA-A*02:06; [9]): 13.5 µM
- Kd (HLA-A*03:01): 0.459 µM
- Kd (HLA-A*11:01): 1.12 µM
- Kd (HLA-A*31:01): 0.169 µM
- Kd (HLA-A*33:01): 1.22 µM
- Kd (HLA-A*68:01): 0.0835 µM
- Kd (HLA-A*68:02; [9]): ≥ 37.6 µM
- Kd (HLA-B*07:02): 3.05 µM
- Kd (HLA-B*35:01): ≥ 64.7 µM
- Kd (HLA-B*51:01 [2]): 10.3 µM
- Kd (HLA-B*53:01): 1.91 µM
- Kd (HLA-B*54:01): 3.26 µM

Sequence: YLISIFLHLV
- Kd (HLA-A*02:02; [10]): 0.00273 µM
- Kd (HLA-A*02:03; [10]): 0.00172 µM
- Kd (HLA-A*02:06; [10]): 0.0086 µM
- Kd (HLA-A*68:02; [10]): 0.167 µM

Sequence: DVSRPTTVV
- Kd (HLA-A*02:01 [1]; [11]): ≥ 35.9 µM
- Kd (HLA-A*02:02; [11]): 16.3 µM
- Kd (HLA-A*02:03; [11]): ≥ 38.1 µM
- Kd (HLA-A*02:06; [11]): 12.8 µM
- Kd (HLA-A*68:02; [11]): 0.0377 µM

- Kd (HLA-A*01:01; source organism: Canis lupus familiaris): 0.0008 µM
- Kd (HLA-A*02:01 [3]): ≥ 20 µM
- Kd (HLA-A*26:01 [4]): ≥ 20 µM
- Kd (HLA-A*69:01): ≥ 20 µM
- Kd (HLA-B*15:01): ≥ 20 µM
- Kd (HLA-B*27:03): ≥ 20 µM
- Kd (HLA-B*39:01): ≥ 20 µM
- Kd (HLA-B*46:01): ≥ 20 µM
- Kd (HLA-B*51:01 [5]): ≥ 20 µM
- Kd (HLA-B*57:01): ≥ 20 µM
Sequence: GTEYRLTLY

Sequence: ETYQLWTAL
- Kd (HLA-A*26:01 [6]): 0.181 µM
- Kd (HLA-A*68:02; [12]): 0.00339 µM

Sequence: LTMKEKSWLV
- Kd (HLA-A*02:06; [13]): 0.0738 µM
- Kd (HLA-A*68:02; [13]): 0.25 µM

Sequence: STCYVFGLY
- Kd (HLA-A*02:01 [1]; [9]): 4.16 µM
- Kd (HLA-A*02:02; [9]): 13.4 µM
- Kd (HLA-A*02:03; [9]): ≥ 10 µM
- Kd (HLA-A*02:06; [9]): 6.14 µM
- Kd (HLA-A*11:01): 0.00786 µM
- Kd (HLA-A*68:02; [9]): 1.38 µM
- Kd (HLA-B*07:02): ≥ 77.5 µM
- Kd (HLA-B*35:01): ≥ 38.2 µM
- Kd (HLA-B*51:01 [2]): ≥ 73.3 µM
- Kd (HLA-B*53:01): 9.93 µM
- Kd (HLA-B*54:01): 10.7 µM

Sequence: TSIGLICVIA
- Kd (HLA-A*68:02; [12]): 0.0355 µM

Sequence: MTTIGIVLL
- Kd (HLA-A*68:02; source organism: Dengue virus 2 Peru/IQT2913/1996): 0.0501 µM

Sequence: CSAVPVHWV
- Kd (HLA-A*68:02; [12]): 0.0111 µM

- Kd (HLA-A*01:01; source organism: Homo sapiens): 0.0631 µM
- Kd (HLA-A*02:01 [3]): ≥ 20 µM
- Kd (HLA-A*26:01 [4]): ≥ 20 µM
- Kd (HLA-A*69:01): ≥ 20 µM
- Kd (HLA-B*15:01): ≥ 20 µM
- Kd (HLA-B*15:17): ≥ 20 µM
- Kd (HLA-B*18:01 [7]): ≥ 20 µM
- Kd (HLA-B*27:03): ≥ 20 µM
- Kd (HLA-B*39:01): ≥ 20 µM
- Kd (HLA-B*46:01): ≥ 20 µM
- Kd (HLA-B*51:01 [5]): ≥ 20 µM
- Kd (HLA-B*57:01): ≥ 20 µM
Sequence: RTDNGGWAH

- Kd (HLA-A*02:01 [1]; source organism: Homo sapiens): 0.0398 µM
- Kd (HLA-A*02:02; source organism: Homo sapiens): 0.07 µM
- Kd (HLA-A*02:03; source organism: Homo sapiens): 2.38 µM
- Kd (HLA-A*68:02; source organism: Homo sapiens): ≥ 52.5 µM
Sequence: SMEAEMIQL

Sequence: TEVMPVSMA
- Kd (HLA-B*18:01 [8]; [14]): 11.1 µM
- Kd (HLA-B*40:01; [14]): 15.4 µM
- Kd (HLA-B*40:02; [14]): 0.0797 µM
- Kd (HLA-B*44:02; [14]): 6.84 µM
- Kd (HLA-B*44:03; [14]): 3.85 µM
- Kd (HLA-B*45:01; [14]): 0.182 µM

Sequence: AEFKSRFFVM
- Kd (HLA-B*18:01 [8]; [15]): 0.0372 µM
- Kd (HLA-B*40:01; [15]): 0.0416 µM
- Kd (HLA-B*40:02; [15]): 0.00357 µM
- Kd (HLA-B*44:02; [15]): 0.192 µM
- Kd (HLA-B*44:03; [15]): 0.0872 µM
- Kd (HLA-B*45:01; [15]): 0.29 µM

Sequence: RELLGYCVSL
- Kd (HLA-B*18:01 [8]; [16]): 12.8 µM
- Kd (HLA-B*40:01; [16]): 9.82 µM
- Kd (HLA-B*40:02; [16]): 0.00507 µM
- Kd (HLA-B*44:02; [16]): 1.92 µM
- Kd (HLA-B*44:03; [16]): 5.06 µM
- Kd (HLA-B*45:01; [16]): 4.85 µM

Sequence: RLLPSLLLLL
- Kd (HLA-A*02:02; [11]): 0.00028 µM
- Kd (HLA-A*02:03; [11]): 0.000915 µM
- Kd (HLA-A*02:06; [11]): 0.000585 µM
- Kd (HLA-A*68:02; [11]): 7.22 µM
